# In the supplement of paper PMC9732359:
# ± gives the uncertainty stated by the source.
# Experiment: protein stability index of a GFP-peptide fusion (yeast GPS) (PSI 1-4); higher = more stable; sorted into four equal gates, so the index is relative within each strain
# Conditions: pdr5∆
# Outline: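 Sequencing reads from sorted gates were used to score each peptide. The library consisted of tiled 17-residue yeast protein peptides fused downstream of GFP on a Cherry-expressing plasmid, pooled and carried in yeast. Mid-log cultures in leucine-free medium were split into four equal gates by GFP/Cherry ratio, and each gate's plasmids were PCR-amplified and Illumina-sequenced. The protein stability index adds up, over all gates, the read frequency multiplied by the gate number.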
row,Sequence,protein stability index
1,PEQVYSLLLTNVIITGS [ARP7],1.39 ± 0.047
2,PEQYSDILLNERVWNIC [AAR2],3.23 ± 0.22
3,PERFMVFQLPTRLPAFE [RPC53],2.75 ± 0.054
4,PEYFESPLQSSKSKQSF [YMR129W/POM152],2.8 ± 0.08
5,PEYLAMYGLTMEWPKDM [ITC1],2.34 ± 0.11
6,PFFKYIDDANVTRKQED [RPC37],2.12 ± 0.064
7,PFILEYDLMAPNGHIST [YMR129W/POM152],3 ± 0.17
8,PFKGEVVDGTVVSCSQH [RPB7],3.08 ± 0.1
9,PFSYLIDETMMDKPLNF [SRB5],3.09 ± 0.073
10,PFVPVLDRRFEIFFKKD [FAS1],2.98 ± 0.067
11,PFYGSYTETDPAKVAEE [SRP54],3.01 ± 0.14
12,PGEYITTIKAIFDGNYG [YMR129W/POM152],2.72 ± 0.071
13,PGSVNSAAKYKDMKLLR [NUT1],2.87 ± 0.12
14,PGVDVSAEEQLRKIDML [SRB7],2.61 ± 0.061
15,PGVLPVGIDTHTATDIY [SNF2],3.04 ± 0.064
16,PGVRVSGEDVIIGKTTP [RPB2],3.41 ± 0.16
17,PGYVDIVKTSSGNEMPP [RPS19A],2.86 ± 0.11
18,PHANPITHAHSLSNPNS [PGD1],2.99 ± 0.045
19,PHTTLVNECIAQSHQRF [CDC53],2.92 ± 0.052
20,PIGEAGDFGGWFCPCHG [RIP1],1.97 ± 0.05
21,PIIIYGTENTERPPLLP [YOR098C/NUP1],2.74 ± 0.1
22,PIPIAVLDSYTPSTNEP [FAS1],2.59 ± 0.063
23,PIYTGDGWVKLTYKSEL [YMR153W/NUP53],2.38 ± 0.09
24,PKAISNFLIKLSELSPG [YCS4],2.51 ± 0.085
25,PKFISEALAFTSLVANE [YDL116W/NUP84],1.38 ± 0.078
26,PKKYKENNTDSARKELE [SMC1],2.8 ± 0.065

row,Sequence,protein stability index
1,PKPDKPSGRTRGRSVMK [ESC2],3.05 ± 0.15
2,PKQSDEYLKRVSVPVSG [SIR3],2.55 ± 0.089
3,PKTGKVERSEAISKKDL [SEC65],3.46 ± 0.081
4,PKVPEDIYKSHLDNSKS [RPN1],2.98 ± 0.12
5,PLAKIYLEENKSDSQYR [MED1],3.18 ± 0.065
6,PLDTIETELPTLSLPDS [SMC1],2.92 ± 0.12
7,PLGKILLKGDNITLITS [SME1],3.12 ± 0.13
8,PLINRLKHYNGYDINYI [SWI1],2.57 ± 0.051
9,PLKYTKLIAAAEDGSRS [SNF6],1.49 ± 0.11
10,PLLTKRKDLRDKLICSI [DIS3],2.62 ± 0.071
11,PLLVPGMTPCTVSPDFV [FAS1],2.38 ± 0.055
12,PMDAYLKLNHIIANINS [SNU114],2.59 ± 0.085
13,PMTVKLVQLPKSAMDTF [POP3],2.52 ± 0.062
14,PNEFMQFKSKEVEKAHP [PRP8],3.37 ± 0.11
15,PNEHPGAKYVIRDSGDR [RPO21],3.1 ± 0.087
16,PNIMLIFGSGFGSADDT [FAS1],2.92 ± 0.073
17,PNLGPQLWLNSSGDFDD [GRR1],3.16 ± 0.22
18,PNRLVKELQYDNEQNLE [PRE2],2.97 ± 0.099
19,PNVCNMKQYRDFLGVAS [PRP28],2.26 ± 0.091
20,PPDSDSSISVMGENEKP [RPT3],1.22 ± 0.12
21,PPKPRKVLQLLRLTRIN [RPL7A],1.57 ± 0.077
22,PPSSFGRSHTRNSTRSS [REC8],2.65 ± 0.17
23,PQEPKHIQEEEEQDVDM [RPC19],3.36 ± 0.09
24,PQFDSTQPKSSSSMDMQ [SSN3],3 ± 0.068
25,PQINILQPIKGESARRF [RPC40],2.58 ± 0.1
26,PQKPVPLNVLQDQYKEG [SNF2],3.33 ± 0.096

row,Sequence,protein stability index
1,PQTPLVEPVTERTKLQE [SNU114],3.07 ± 0.18
2,PQVLINRDPVKHAEFDL [SIR2],3.04 ± 0.093
3,PQYINYSSIPSLQDSII [SSN2],2.79 ± 0.12
4,PRALQPSQFGMLCTADT [RET1],1.57 ± 0.05
5,PREDKENNRLLFECRTC [RPB9],3.17 ± 0.13
6,PRQRMEEVVSNDEGVWD [PRP8],3.45 ± 0.056
7,PSCNNMLLITSGDSGVY [RPC11],1.55 ± 0.22
8,PSDWQRNSFIRDMIMKR [ITC1],3.03 ± 0.073
9,PSEILHLILDKLNQKYD [GRR1],2.48 ± 0.068
10,PSRQFDHYESNQLVAKL [SRB8],2.85 ± 0.064
11,PSTAIHTSPHQPSDVKP [SIR4],2.95 ± 0.049
12,PSYYGVRDTSPHGISVF [BRR2],1.41 ± 0.057
13,PTESYLQYIIHDTLNNE [BRR2],2.43 ± 0.07
14,PTFSTHAQLLLSDRITG [PRP8],1.87 ± 0.036
15,PTKLLVSEVAKIMQEAT [PRE8],2.58 ± 0.085
16,PTLPRSDRECPKCHSRE [RPB9],2.92 ± 0.056
17,PTSPNYSPTSPSYSPTS [RPO21],2.9 ± 0.031
18,PVGSYEREQCRAGGAAA [PRE7],2.98 ± 0.18
19,PWFWLLPLWHLLNRIPR [POP1],1.56 ± 0.054
20,PYFPGGSIAMARVLFDD [CYT1],1.88 ± 0.1
21,PYGVYHPPFIKYACLAI [SIN4],1.44 ± 0.04
22,PYLVANVVEVMDMNEIE [RPT5],2.19 ± 0.063
23,QAELLQLAVKIINKVLD [YJL039C/NUP192],3.09 ± 0.091
24,QAKLKKNVETLEEKILA [SMC4],2.98 ± 0.077
25,QAPTTGFSFGSQLGGNK [YJL041W/NSP1],3.01 ± 0.054
26,QAQAQAQAQAQAQAQAH [GAL11],3.05 ± 0.084

row,Sequence,protein stability index
1,QAQAQVYAQQSTVQTPI [PGD1],2.91 ± 0.055
2,QASDPSKKKKNIKKKDT [RPC53],3.5 ± 0.13
3,QCPVKSAEDQLYAITFR [QCR2],2.83 ± 0.25
4,QCYKIYDLVILKSGLPL [YMR129W/POM152],2.04 ± 0.12
5,QDENIGLSMLAKLKELA [RPC31],3.46 ± 0.074
6,QDIYYLAQTLKLWRKIA [RRI2],2.17 ± 0.046
7,QDLILDLKKKLNSLKDE [SMC4],2.82 ± 0.2
8,QDREITNWARTTFRNEY [MED8],2.07 ± 0.083
9,QEELKKRQELEEASQQQ [MED2],3.2 ± 0.076
10,QEGLAKFGACVAQGIMN [RPN2],1.75 ± 0.042
11,QEKMDPNNSRDDYKDLT [IRR1],3.27 ± 0.083
12,QELAKSIRSRRPYQVNV [PRE1],2.88 ± 0.078
13,QELCYPDENHDNTSHDE [BRN1],3.27 ± 0.061
14,QELLNAETLCFTVNVLY [RPN3],2.75 ± 0.087
15,QEMIEISNVIKPNQTIM [SRP54],2.21 ± 0.079
16,QEQLKQMDQQLQYTALT [ARP7],2.67 ± 0.25
17,QEQVYPDFKPWEHTAAE [SRB8],2.94 ± 0.13
18,QERKDFLKKVMDTIQDK [ECM29],3.41 ± 0.12
19,QETCDKLRARLVEYGFD [SMC2],2.52 ± 0.093
20,QEWLANLKLISVSLVDE [SIR4],1.87 ± 0.047
21,QFCGIKERNSLKKLKAM [BRR2],3.25 ± 0.12
22,QFDIQSPLYMDTETFDT [YML103C/NUP188],2.88 ± 0.064
23,QFLQLDNDGFSFLMRQF [ECM29],1.54 ± 0.061
24,QFMKRFPMPYENEEFIT [ECM29],2.83 ± 0.094
25,QFSYVDSSMTTVQENEL [AAR2],2.99 ± 0.05
26,QFTKVIDEPIKSIMDGI [FAS1],2.27 ± 0.078
